Measured values published in the supplement of paper PMC9732359.
± gives the uncertainty stated by the source.

Test: protein stability index of a GFP-peptide fusion (yeast GPS) (PSI 1-4); higher = more stable; sorted into four equal gates, so the index is relative within each strain
Method in brief: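 Tiled 17-residue yeast protein peptides were fused downstream of GFP in a plasmid that also expresses Cherry, and the pooled library was carried in yeast. Mid-log cultures in leucine-free medium were sorted into four equal gates by GFP/Cherry fluorescence ratio, and plasmids from each gate were PCR-amplified and Illumina-sequenced, with reads assigned to strains by barcodes. The protein stability index for each peptide was each gate's read frequency times its gate number, summed.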

| Sequence | protein stability index (doa10∆) | protein stability index (pdr5∆) | protein stability index (san1∆) | protein stability index (ubr1∆) |
| --- | --- | --- | --- | --- |
| EVWSVSWNLTGTILSSA [YGL100W/SEH1] | 1.7 ± 0.07 | 1.5 ± 0.083 | 1.33 ± 0.15 | 1.63 ± 0.061 |
| EVYRTSLNTKKNEKLIL [SMC3] | 1.75 ± 0.082 | 1.96 ± 0.074 | 2.73 ± 0.13 | 2.35 ± 0.1 |
| EVYTLVDSQGLPYNWDA [ARP7] | 3.31 ± 0.2 | 3.56 ± 0.2 | 2.85 ± 0.14 | 3.22 ± 0.15 |
| EWDMLNVEEEQIVPYIE [BRR2] | 3.2 ± 0.17 | 3.41 ± 0.18 | 3.02 ± 0.24 | 3.45 ± 0.29 |
| EWKSNHKKKRSNAAGAD [SRB8] | 1.33 ± 0.13 | 1.72 ± 0.2 | 1.5 ± 0.17 | 1.83 ± 0.054 |
| EYEEWQKSVSLLSSESN [YDL116W/NUP84] | 2.93 ± 0.055 | 3.02 ± 0.077 | 2.84 ± 0.053 | 2.73 ± 0.054 |
| FCGKKTVKRGAAGIWTC [RPL43A] | 1.79 ± 0.072 | 1.88 ± 0.071 | 2.19 ± 0.11 | 1.92 ± 0.059 |
| FDDACNQIWNIALNLAS [SSN2] | 3.01 ± 0.15 | 2.88 ± 0.078 | 2.91 ± 0.2 | 2.62 ± 0.14 |
| FDDIFQVSEVDPGRYNK [RPB8] | 3.06 ± 0.14 | 2.75 ± 0.12 | 2.57 ± 0.18 | 2.95 ± 0.097 |
| FDKDLERDTFSDFTFPE [DIS3] | 2.11 ± 0.15 | 1.88 ± 0.13 | 1.24 ± 0.17 | 1.32 ± 0.15 |
| FDKKSFFNGKALNNAIP [PRP8] | 2.06 ± 0.08 | 1.91 ± 0.051 | 1.98 ± 0.15 | 1.92 ± 0.052 |
| FDNKSTSEEQEALLRSL [SNF2] | 3.32 ± 0.072 | 3.6 ± 0.18 | 2.68 ± 0.26 | 2.73 ± 0.2 |
| FEGNVATKAINGCIFTL [PRP8] | 2.57 ± 0.068 | 2.32 ± 0.049 | 1.97 ± 0.053 | 2.71 ± 0.05 |
| FEIDGDVIHFEDSSILQ [PCI8] | 3.15 ± 0.083 | 3.46 ± 0.072 | 3.04 ± 0.066 | 3.46 ± 0.044 |
| FELIELVTPKSFLFDVL [NUT1] | 1.92 ± 0.25 | – | 1.08 ± 0.16 | 1.06 ± 0.12 |
| FERIMILDPQVTRFTTW [YJL039C/NUP192] | 1.06 ± 0.077 | 1.33 ± 0.073 | 1.22 ± 0.12 | 1.23 ± 0.062 |
| FERLVPRGTAKLIIHRK [SMC3] | 3.01 ± 0.12 | 2.98 ± 0.12 | – | 2.86 ± 0.03 |
| FESSSSLPFLLRHMPLA [SSN2] | 2.17 ± 0.16 | 1.61 ± 0.17 | 2.76 ± 0.18 | 1.48 ± 0.11 |
| FETETEVTFKNANIFSS [FAS1] | 3.15 ± 0.042 | 3.36 ± 0.055 | 3.35 ± 0.046 | 3.35 ± 0.037 |
| FEWDISNSDNCPEEFAE [SNF5] | 3.12 ± 0.11 | 3.19 ± 0.15 | 3.11 ± 0.1 | 3.29 ± 0.072 |
| FEYEGVQDIIGNGKLSE [RPN1] | – | 2.85 ± 0.18 | 3.21 ± 0.26 | 2.74 ± 0.1 |
| FFEMLISKSLTFSQESG [RRI2] | 2.12 ± 0.082 | 1.45 ± 0.059 | 1.25 ± 0.12 | 1.66 ± 0.13 |
| FFLRDTLLWNKNDKLIK [SNF5] | 2.4 ± 0.062 | 2.04 ± 0.059 | 2.06 ± 0.067 | 2.42 ± 0.027 |
| FFLSIYFFYASRPEYSC [YJL039C/NUP192] | 1.41 ± 0.056 | 1.35 ± 0.13 | 1.19 ± 0.11 | 1.38 ± 0.057 |
| FFTIDHFIQKLHTARKI [SIR2] | 1.75 ± 0.09 | 1.71 ± 0.1 | 1.11 ± 0.12 | 1.37 ± 0.12 |
| FFYNISSIHWNNWFSLP [SIN4] | 2.09 ± 0.036 | 1.96 ± 0.038 | 2.03 ± 0.05 | 2.13 ± 0.036 |

| Sequence | protein stability index (doa10∆) | protein stability index (pdr5∆) | protein stability index (san1∆) | protein stability index (ubr1∆) |
| --- | --- | --- | --- | --- |
| FGHIDLAKPVFHVGFIA [RPO21] | 2.37 ± 0.072 | 2.7 ± 0.085 | 2.73 ± 0.052 | 2.63 ± 0.06 |
| FGIYILTQGINGKEVPL [MED1] | 1.48 ± 0.1 | 1.45 ± 0.068 | 2.43 ± 0.14 | 1.38 ± 0.066 |
| FGKTGDQKETKKGESEK [YOR098C/NUP1] | 3.4 ± 0.1 | 3.4 ± 0.11 | 3.45 ± 0.076 | 3.35 ± 0.061 |
| FHIACSVGNLEVVKSLY [NAS6] | 2.08 ± 0.078 | 2.39 ± 0.068 | 2.45 ± 0.056 | 2.67 ± 0.065 |
| FHIGYFKATIQILQGIC [RPO31] | 1.39 ± 0.042 | 1.48 ± 0.035 | 1.72 ± 0.062 | 1.54 ± 0.036 |
| FIEVRNFLGDKKIRNVP [RPL9A] | – | – | – | 3.16 ± 0.12 |
| FILTIATAFLGYCCVYG [COB] | 1.66 ± 0.098 | 1.27 ± 0.11 | 1.22 ± 0.22 | 1.36 ± 0.072 |
| FISELCSIEPIAAKLIN [YML103C/NUP188] | 1.41 ± 0.033 | 1.34 ± 0.044 | 1.44 ± 0.077 | 1.35 ± 0.045 |
| FITKHLPLLILENSSRS [NUT1] | 1.36 ± 0.098 | 1.41 ± 0.067 | 1.12 ± 0.2 | 1.14 ± 0.032 |
| FKATIQILQGICKNCSA [RPO31] | 1.69 ± 0.044 | 1.77 ± 0.038 | 1.76 ± 0.061 | 1.79 ± 0.046 |
| FKCQEKDKGVYVVTSDE [SIR2] | 2.94 ± 0.076 | 3.08 ± 0.085 | 3.27 ± 0.072 | 3.34 ± 0.054 |
| FKDVEHISFNFSMLQMA [BRR2] | 1.76 ± 0.076 | 1.59 ± 0.056 | 2.33 ± 0.15 | 2.03 ± 0.049 |
| FKGLETPLKARQREMAE [YLR018C/POM34] | 3.27 ± 0.1 | 3.29 ± 0.1 | 2.91 ± 0.088 | 3.41 ± 0.069 |
| FKKQMQTIMKMGPLSNI [SRP54] | 2.59 ± 0.11 | 3.14 ± 0.074 | 3.03 ± 0.1 | 2.92 ± 0.072 |
| FKLFNKYRPETAAEKKE [RPL8A] | 2.56 ± 0.079 | 2.64 ± 0.083 | 2.5 ± 0.083 | 2.74 ± 0.071 |
| FKRDLLREKEDKKNSSD [YJL039C/NUP192] | 3.38 ± 0.13 | 2.92 ± 0.18 | 3.23 ± 0.064 | 3 ± 0.14 |
| FKSSVEMGKTDKSTKTA [YOR098C/NUP1] | 3.45 ± 0.095 | 3.24 ± 0.099 | 3.24 ± 0.05 | 3.43 ± 0.063 |
| FKSYATRTVITDWDPQF [SMC2] | 2.88 ± 0.11 | 3.06 ± 0.083 | 2.72 ± 0.12 | 2.85 ± 0.097 |
| FKVYEPLLLVGLDKFSN [RPS16A] | 1.72 ± 0.058 | 1.96 ± 0.055 | 1.85 ± 0.074 | 2.14 ± 0.043 |
| FLEKEKQLTLLRSKLFQ [SMC4] | 2.46 ± 0.094 | 1.99 ± 0.067 | 1.86 ± 0.12 | 2.56 ± 0.043 |
| FLFQNINFERIDEVFSW [GRR1] | 2.36 ± 0.059 | 2.36 ± 0.071 | 2.47 ± 0.056 | 2.28 ± 0.048 |
| FLKHNGEEDAVDLLLEI [RPN1] | 3.23 ± 0.082 | 3.16 ± 0.12 | 3.24 ± 0.072 | 3.3 ± 0.05 |
| FLLSAMTMASKSLEVVN [NSL1] | 1.4 ± 0.08 | 1.45 ± 0.069 | 1.54 ± 0.15 | 1.61 ± 0.047 |
| FLLTQSKVSIEQRKEAA [RPN7] | 2.27 ± 0.13 | 2.53 ± 0.15 | 2.42 ± 0.088 | 2.48 ± 0.058 |
| FLQELLKKVQQQQQAAA [SWI1] | 2.06 ± 0.081 | 2.6 ± 0.088 | 2.47 ± 0.1 | 2.85 ± 0.1 |
| FLQRIDFQIDGNIFELL [RRI2] | 2.63 ± 0.1 | 2.92 ± 0.071 | 2.37 ± 0.07 | 2.64 ± 0.048 |
